Data reported in patent publication US20190077860A1 (EISAI R AND D MANAGEMENT, published 2019).
Positions count from the first letter of the chain named.

T1: human EphB3 extracellular region-SEAP-His protein (human, UniProt P54753 34-559)
T1 construct: extracellular domain; also called hEphB3-SEAP-His
T1 sequence (looked up): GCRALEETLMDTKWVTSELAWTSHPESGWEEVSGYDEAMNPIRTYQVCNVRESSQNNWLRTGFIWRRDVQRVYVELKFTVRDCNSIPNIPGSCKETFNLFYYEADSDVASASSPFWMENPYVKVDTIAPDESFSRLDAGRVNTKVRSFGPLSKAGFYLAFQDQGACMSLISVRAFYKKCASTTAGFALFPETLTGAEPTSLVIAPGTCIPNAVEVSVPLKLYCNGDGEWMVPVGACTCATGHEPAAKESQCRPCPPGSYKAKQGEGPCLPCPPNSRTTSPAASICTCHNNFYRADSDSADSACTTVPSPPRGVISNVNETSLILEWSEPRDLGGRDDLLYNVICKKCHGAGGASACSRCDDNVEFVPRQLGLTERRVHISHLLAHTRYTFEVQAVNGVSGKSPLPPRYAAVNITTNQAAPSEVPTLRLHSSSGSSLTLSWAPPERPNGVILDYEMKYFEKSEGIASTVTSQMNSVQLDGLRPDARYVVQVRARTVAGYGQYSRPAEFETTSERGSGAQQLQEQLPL

T2: human EphB1 extracellular region-SEAP-His protein (human, UniProt P54762 18-540)
T2 construct: extracellular domain; also called hEphB1-SEAP-His
T2 sequence (looked up): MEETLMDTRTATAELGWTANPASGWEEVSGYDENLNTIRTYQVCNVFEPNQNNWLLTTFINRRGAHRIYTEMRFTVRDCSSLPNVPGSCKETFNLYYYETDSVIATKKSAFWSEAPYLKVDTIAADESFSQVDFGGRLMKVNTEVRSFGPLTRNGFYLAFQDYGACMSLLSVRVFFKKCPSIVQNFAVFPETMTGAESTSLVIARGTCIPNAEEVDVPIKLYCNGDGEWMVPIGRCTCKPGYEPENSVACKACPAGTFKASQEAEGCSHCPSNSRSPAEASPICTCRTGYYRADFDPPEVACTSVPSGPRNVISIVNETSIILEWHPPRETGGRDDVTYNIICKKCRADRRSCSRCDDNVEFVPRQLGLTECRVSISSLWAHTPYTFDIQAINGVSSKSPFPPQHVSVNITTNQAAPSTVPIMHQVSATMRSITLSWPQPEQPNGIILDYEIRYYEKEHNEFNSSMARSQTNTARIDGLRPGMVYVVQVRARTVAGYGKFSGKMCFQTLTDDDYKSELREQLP

T3: human EphA6 extracellular region-SEAP-His protein (human, UniProt Q9UF33 23-550)
T3 construct: extracellular domain; also called hEphA6-SEAP-His
T3 sequence (looked up): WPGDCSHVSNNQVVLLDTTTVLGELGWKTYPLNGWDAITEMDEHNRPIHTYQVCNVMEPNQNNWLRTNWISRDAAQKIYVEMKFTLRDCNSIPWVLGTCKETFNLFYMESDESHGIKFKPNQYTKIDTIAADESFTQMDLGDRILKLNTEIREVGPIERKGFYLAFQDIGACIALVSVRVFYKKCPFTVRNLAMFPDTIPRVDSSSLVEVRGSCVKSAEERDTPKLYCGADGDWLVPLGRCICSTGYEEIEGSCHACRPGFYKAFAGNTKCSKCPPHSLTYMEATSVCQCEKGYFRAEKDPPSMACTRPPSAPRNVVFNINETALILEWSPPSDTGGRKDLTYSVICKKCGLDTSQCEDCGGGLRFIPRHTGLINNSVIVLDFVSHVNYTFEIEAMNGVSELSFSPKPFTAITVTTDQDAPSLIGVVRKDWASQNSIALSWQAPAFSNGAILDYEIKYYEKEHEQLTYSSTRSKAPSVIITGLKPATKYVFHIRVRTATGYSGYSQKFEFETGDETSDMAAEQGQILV

T4: human EphB4 extracellular region-SEAP-His protein (human, UniProt P54760 16-539)
T4 construct: extracellular domain; also called hEphB4-SEAP-His
T4 sequence (looked up): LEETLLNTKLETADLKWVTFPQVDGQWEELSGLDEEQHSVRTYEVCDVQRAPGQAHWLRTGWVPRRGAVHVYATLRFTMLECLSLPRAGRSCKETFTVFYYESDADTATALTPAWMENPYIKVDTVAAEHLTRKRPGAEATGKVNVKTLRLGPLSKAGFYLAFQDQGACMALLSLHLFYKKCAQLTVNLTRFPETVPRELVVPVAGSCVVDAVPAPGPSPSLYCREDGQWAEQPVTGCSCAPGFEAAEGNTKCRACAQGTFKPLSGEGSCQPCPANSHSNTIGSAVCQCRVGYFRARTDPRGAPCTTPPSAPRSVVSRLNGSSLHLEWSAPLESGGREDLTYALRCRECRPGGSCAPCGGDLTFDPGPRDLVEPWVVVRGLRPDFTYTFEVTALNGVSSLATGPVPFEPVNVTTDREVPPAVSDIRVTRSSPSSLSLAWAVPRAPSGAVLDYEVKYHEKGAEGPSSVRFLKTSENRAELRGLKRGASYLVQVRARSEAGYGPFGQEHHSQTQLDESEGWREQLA

B1: humanized antibody No. 153 (antibody, human IgG2)
heavy: QVQLVQSGSELKKPGASVKVSCKASGYTFTDYSMHWVRQAPGQGLKWMGWINTETGEPTYAQGFTGRFVFSLDTSVSTAYLQISSLKAEDTAVYYCARIPLYYYGSRYWYFDVWGQGTTVTVSSASTKGPSVFPLAPSSRSTSESTAALGCLVKDYFPEPVTVSWNSGALTSGVHTFPAVLQSSGLYSLSSVVTVPSSNFGTQTYTCNVDHKPSNTKVDKTVERKSCVECPPCPAPPAAAPSVFLFPPKPKDTLMISRTPEVTCVVVDVSHEDPEVQFNWYVDGVEVHNAKTKPREEQFNSTFRVVSVLTVVHQDWLNGKEYKCKVSNKGLPAPIEKTISKTKGQPREPQVYTLPPSREEMTKNQVSLTCLVKGFYPSDIAVEWESNGQPENNYKTTPPMLDSDGSFFLYSKLTVDKSRWQQGNVFSCSVMHEALHNHYTQKSLSLSPG
light: DIQMTQSPSSLSASVGDRVTITCRASENIYRNLAWYQQKPGKAPKLLLYAATNLADGVPSRFSGSGSGTDYTLTISSLQSEDFATYYCQHFWGTPWTFGQGTKVEIKRTVAAPSVFIFPPSDEQLKSGTASVVCLLNNFYPREAKVQWKVDNALQSGNSQESVTEQDSKDSTYSLSSTLTLSKADYEKHKVYACEVTHQGLSSPVTKSFNRGEC
notes: human Ig kappa; also called L1-5/HA2
B2: humanized antibody No. 154 (antibody, human IgG2)
heavy: B1 heavy with K46E, Q62D, G63D, T65K
light: B1 light
notes: human Ig kappa; also called L1-5/HK1
B3: humanized antibody No. 155 (antibody, human IgG2)
heavy: B1 heavy with V2I, Q62D, G63D, T65K
light: B1 light
notes: human Ig kappa; also called L1-5/HK4
B4: humanized antibody No. 156 (antibody, human IgG2)
heavy: B1 heavy with V2I
light: B1 light with K45Q, S80P
notes: human Ig kappa; also called L1-6/HA4
B5: humanized antibody No. 157 (antibody, human IgG2)
heavy: B1 heavy with K46E
light: B1 light with K45Q, S80P
notes: human Ig kappa; also called L1-6/HA1
B6: humanized antibody No. 158 (antibody, human IgG2)
heavy: B1 heavy
light: B1 light with K45Q, S80P
notes: human Ig kappa; also called L1-6/HA2

Legend:
Assay in all cases: ELISA
[1] = biological target: T1, human EphB3 extracellular …
[2] = biological target: T5, human EphA2 extracellular region-SEAP-His protein (human, UniProt P29317 24-537)
T5 construct: extracellular domain; also called hEphA2-SEAP-His
T5 sequence (P29317 24-537): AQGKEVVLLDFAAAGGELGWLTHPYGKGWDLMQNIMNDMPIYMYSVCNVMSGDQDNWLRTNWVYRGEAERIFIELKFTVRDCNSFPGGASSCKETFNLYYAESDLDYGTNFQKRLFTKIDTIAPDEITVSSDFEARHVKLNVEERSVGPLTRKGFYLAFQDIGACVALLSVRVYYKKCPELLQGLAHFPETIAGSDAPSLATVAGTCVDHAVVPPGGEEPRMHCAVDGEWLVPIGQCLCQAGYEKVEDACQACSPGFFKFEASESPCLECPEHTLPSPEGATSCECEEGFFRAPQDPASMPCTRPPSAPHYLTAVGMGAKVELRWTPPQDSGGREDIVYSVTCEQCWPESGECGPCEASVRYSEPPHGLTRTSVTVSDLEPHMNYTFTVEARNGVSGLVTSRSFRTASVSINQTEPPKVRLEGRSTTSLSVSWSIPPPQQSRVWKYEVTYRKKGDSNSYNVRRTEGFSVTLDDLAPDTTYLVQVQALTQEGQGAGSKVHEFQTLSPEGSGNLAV

[3] = biological target: T2, human EphB1 extracellular …
[4] = biological target: T6, human EphA4 extracellular region-SEAP-His protein (human, UniProt P54764 20-547)
T6 construct: also called hEphA4-SEAP-His
T6 sequence (P54764 20-547): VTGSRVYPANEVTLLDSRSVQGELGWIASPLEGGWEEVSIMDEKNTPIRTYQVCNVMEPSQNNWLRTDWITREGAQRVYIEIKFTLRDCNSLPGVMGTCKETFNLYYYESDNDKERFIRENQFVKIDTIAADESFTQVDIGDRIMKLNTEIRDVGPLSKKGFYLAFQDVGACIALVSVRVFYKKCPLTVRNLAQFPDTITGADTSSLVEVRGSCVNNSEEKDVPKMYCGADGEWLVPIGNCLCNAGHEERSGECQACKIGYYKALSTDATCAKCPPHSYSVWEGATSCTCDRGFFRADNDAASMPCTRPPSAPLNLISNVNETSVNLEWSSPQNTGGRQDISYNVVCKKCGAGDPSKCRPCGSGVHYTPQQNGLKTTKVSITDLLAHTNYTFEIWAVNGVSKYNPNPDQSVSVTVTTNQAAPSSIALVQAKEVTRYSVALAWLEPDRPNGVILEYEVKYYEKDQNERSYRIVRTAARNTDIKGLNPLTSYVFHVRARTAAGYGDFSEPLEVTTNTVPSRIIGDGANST

[5] = biological target: T3, human EphA6 extracellular …
[6] = biological target: T4, human EphB4 extracellular …

Binder | A450 as % of hEphA4-SEAP-His [1] [%] | A450 as % of hEphA4-SEAP-His [2] [%] | A450 as % of hEphA4-SEAP-His [3] [%] | A450 as % of hEphA4-SEAP-His [4] [%] | A450 as % of hEphA4-SEAP-His [5] [%] | A450 as % of hEphA4-SEAP-His [6] [%]
B1 | 5.9 | 6 | 6 | 100 | 8.7 | 6
B2 | 6.2 | 6.2 | 6.3 | 100 | 8.4 | 6.4
B3 | 5.5 | 5.5 | 5.4 | 100 | 7.2 | 5.7
B4 | 5.6 | 5.5 | 5.4 | 100 | 8.9 | 5.6
B5 | 6.4 | 6.3 | 6.1 | 100 | 9 | 6.5
B6 | 6.5 | 6.7 | 6.2 | 100 | 10 | 6.5
